Measurements taken from US20230255948.

Molecular target: GST-OPNR153A (E. coli produced mutant OPN with the arginine in the thrombin cleavage site mutated to alanine) (UniProt P10923)

In the case of Thrombin, the “thrombin cleavage (time course, 10 nM thrombin, SDS-PAGE)” value is reported as “resistant to thrombin cleavage”.
